These results are taken from the supplement of paper PMC11246515.

± gives the standard deviation of the averaged measurements.

The nature of the data set: total protein half-life in vivo (active degradation + dilution); higher = more stable protein.
The mark [1] stands for this setting: E. coli NCM3722 delta-clpP delta-lon delta-hslV, growth: N-lim chemostat, doubling time 6 h.
The mark [2] stands for this setting: E. coli NCM3722 delta-clpP, growth: N-lim chemostat, doubling time 6 h.
Setting [3] is: E. coli NCM3722 delta-hslV, growth: N-lim chemostat, doubling time 6 h.
The mark [4] stands for this setting: E. coli NCM3722 delta-lon, growth: N-lim chemostat, doubling time 6 h.
The mark [5] stands for this setting: E. coli NCM3722 delta-smpB, growth: N-lim chemostat, doubling time 6 h.
The mark [6] stands for this setting: wild type E. coli NCM3722, growth: C-lim chemostat, doubling time 3 h.
Setting [7] is: wild type E. coli NCM3722, growth: C-lim chemostat, doubling time 6 h.
Where [8] appears, read: wild type E. coli NCM3722, growth: C-lim chemostat, doubling time 12 h.
Where [9] appears, read: wild type E. coli NCM3722, growth: N-lim chemostat, doubling time 6 h.
[10] abbreviates: wild type E. coli NCM3722, growth: N-lim chemostat, doubling time 12 h.
The mark [11] stands for this setting: wild type E. coli NCM3722, growth: P-lim chemostat, doubling time 6 h.
[12] abbreviates: wild type E. coli NCM3722, growth: P-lim chemostat, doubling time 12 h.

“MSVIETATVPLAQQQADALLNVKDLRVTFSTPDGDVTAVNDLNFSLRAGETLGIVGESGSGKSQTAFALMGLLAANGRIGGSATFNGREILNLPEHELNKLRAEQISMIFQDPMTSLNPYMRVGEQLMEVLMLHKNMSKAEAFEESVRMLDAVKMPEARKRMKMYPHEFSGGMRQRVMIAMALLCRPKLLIADEPTTALDVTVQAQIMTLLNELKREFNTAIIMITHDLVVVAGICDKVLVMYAGRTMEYGNARDVFYQPVHPYSIGLLNAVPRLDAEGETMLTIPGNPPNLLRLPKGCPFQPRCPHAMEICSSAPPLEEFTPGRLRACFKPVEELL”: the “total protein half-life in vivo” value is 5.379 ± 0.026 h under setting [1]; 5.7109 ± 0.0028 h under setting [2]; 5.53 ± 0.098 h under setting [3]; 4.81 ± 0.18 h under setting [4]; 5.34 ± 0.22 h under setting [5]; 2.84 ± 0.31 h under setting [6]. Besides, the “total protein half-life in vivo” value runs as follows: under setting [7], 5.49 ± 0.35 h; under setting [8], 11.4 ± 1.9 h; under setting [9], 5.29 ± 0.21 h; under setting [10], 11.4 ± 1.2 h; under setting [11], 5.715 ± 0.02 h; under setting [12], 11.6 ± 0.23 h.

Consider “MATDTLTHATAHAHEHGHHDAGGTKIFGFWIYLMSDCILFSILFATYAVLVNGTAGGPTGKDIFELPFVLVETFLLLFSSITYGMAAIAMYKNNKSQVISWLALTWLFGAGFIGMEIYEFHHLIVNGMGPDRSGFLSAFFALVGTHGLHVTSGLIWMAVLMVQIARRGLTSTNRTRIMCLSLFWHFLDVVWICVFTVVYLMGAM [P0ABJ3]”, for which the “total protein half-life in vivo” value under setting [8] was 13.9 h.

For the sequence “MKKQTQLLSALALSVGLTLSASFQAVASIPGQVADQAPLPSLAPMLEKVLPAVVSVRVEGTASQGQKIPEEFKKFFGDDLPDQPAQPFEGLGSGVIINASKGYVLTNNHVINQAQKISIQLNDGREFDAKLIGSDDQSDIALLQIQNPSKLTQIAIADSDKLRVGDFAVAVGNPFGLGQTATSGIVSALGRSGLNLEGLENFIQTDASINRGNSGGALLNLNGELIGINTAILAPGGGSVGIGFAIPSNMARTLAQQLIDFGEIKRGLLGIKGTEMSADIAKAFNLDVQRGAFVSEVLPGSGSAKAGVKAGDIITSLNGKPLNSFAELRSRIATTEPGTKVKLGLLRNGKPLEVEVTLDTSTSSSASAEMITPALEGATLSDGQLKDGGKGIKIDEVVKGSPAAQAGLQKDDVIIGVNRDRVNSIAEMRKVLAAKPAIIALQIVRGNESIYLLMR”, the “total protein half-life in vivo” value by setting is: under setting [1], 6.2 ± 0.32 h; under setting [3], 6.47 ± 0.17 h; under setting [4], 6.3328 ± 0.0043 h; under setting [5], 5.56 ± 0.2 h; under setting [6], 3.05 ± 0.14 h; under setting [7], 6.305 ± 0.0077 h. Moreover, the “total protein half-life in vivo” value by setting is: under setting [8], 10 ± 0.31 h; under setting [9], 6.06 ± 0.2 h; under setting [10], 11.7 ± 0.17 h; under setting [11], 5.48 ± 0.15 h; under setting [12], 10.6 ± 0.71 h.

For the sequence “MTQPMPGKPAEDAENELDIRGLFRTLWAGKLWIIGMGLAFALIALAYTFFARQEWSSTAITDRPTVNMLGGYYSQQQFLRNLDVRSNMASADQPSVMDEAYKEFVMQLASWDTRREFWLQTDYYKQRMVGNSKADAALLDEMINNIQFIPGDFTRAVNDSVKLIAETAPDANNLLRQYVAFASQRAASHLNDELKGAWAARTIQMKAQVKRQEEVAKAIYDRRMNSIEQALKIAEQHNISRSATDVPAEELPDSEMFLLGRPMLQARLENLQAVGPAFDLDYDQNRAMLNTLNVGPTLDPRFQTYRYLRTPEEPVKRDSPRRAFLMIMWGIVGGLIGAGVALTRRCSK [P0AG00]”, the “total protein half-life in vivo” value by setting is: under setting [1], 6.85 ± 0.38 h; under setting [2], 6.17 ± 0.56 h; under setting [3], 6.71 ± 1.2 h; under setting [4], 6.55 ± 0.092 h; under setting [5], 6.22 ± 0.16 h; under setting [6], 3.48 ± 0.46 h. Also, the “total protein half-life in vivo” value amounted to 6.38 ± 0.37 h under setting [7]; 6.6 ± 1.2 h under setting [9]; 12.9 ± 1.9 h under setting [10]; 6.31 ± 0.24 h under setting [11]; 13.3 ± 0.56 h under setting [12].

With “MPALDLIRPSVTAMRVIASVNADFARELKLPPHIRSLGLISADSDDVTYIAADEATKQAMVEVVYGRSLYAGAAHGPSPTAGEVLIMLGGPNPAEVRAGLDAMIAHIENGAAFQWANDAQDTAFLAHVVSRTGSYLSSTAGITLGDPMAYLVAPPLEATYGIDAALKSADVQLATYVPPPSETNYSAAFLTGSQAACKAACNAFTDAVLEIARNPIQRA”, the “total protein half-life in vivo” value runs as follows: under setting [1], 6.04 ± 0.88 h; under setting [2], 4.87 h; under setting [3], 4.39 ± 0.31 h; under setting [4], 4.68 ± 0.094 h; under setting [5], 4.69 ± 0.1 h; under setting [6], 3.11 ± 0.15 h. In addition, the “total protein half-life in vivo” value reads like this: under setting [7], 5.97 ± 0.72 h; under setting [8], 11.95 ± 0.013 h; under setting [9], 4.87 ± 0.41 h; under setting [10], 7.99 h; under setting [11], 6.1512 ± 0.003 h; under setting [12], 11.4 ± 0.5 h.

With “MSKAGASLATCYGPVSADVIAKAENIRLLILDVDGVLSDGLIYMGNNGEELKAFNVRDGYGIRCALTSDIEVAIITGRKAKLVEDRCATLGITHLYQGQSNKLIAFSDLLEKLAIAPENVAYVGDDLIDWPVMEKVGLSVAVADAHPLLIPRADYVTRIAGGRGAVREVCDLLLLAQGKLDEAKGQSI [P0ABZ4]”, the “total protein half-life in vivo” value was determined as 6.03 ± 0.62 h under setting [1]; 5.24 ± 0.48 h under setting [2]; 4.75 h under setting [3]; 4.98 ± 0.53 h under setting [4]; 4.36 ± 0.21 h under setting [5]; 4.33 ± 1.4 h under setting [7]. Also, the “total protein half-life in vivo” value under setting [8] came to 11.2 ± 2 h; the “total protein half-life in vivo” value under setting [9] stood at 4.81 h; the “total protein half-life in vivo” value under setting [10] worked out at 7.52 ± 0.99 h; the “total protein half-life in vivo” value under setting [11] was found to be 6.58 h; the “total protein half-life in vivo” value under setting [12] stood at 13.2 ± 0.32 h.

“MGQEKLYIEKELSWLSFNERVLQEAADKSNPLIERMRFLGIYSNNLDEFYKVRFAELKRRIIISEEQGSNSHSRHLLGKIQSRVLKADQEFDGLYNELLLEMARNQIFLINERQLSVNQQNWLRHYFKQYLRQHITPILINPDTDLVQFLKDDYTYLAVEIIRGDTIRYALLEIPSDKVPRFVNLPPEAPRRRKPMILLDNILRYCLDDIFKGFFDYDALNAYSMKMTRDAEYDLVHEMEASLMELMSSSLKQRLTAEPVRFVYQRDMPNALVEVLREKLTISRYDSIVPGGRYHNFKDFINFPNVGKANLVNKPLPRLRHIWFDKAQFRNGFDAIRERDVLLYYPYHTFEHVLELLRQASFDPSVLAIKINIYRVAKDSRIIDSMIHAAHNGKKVTVVVELQARFDEEANIHWAKRLTEAGVHVIFSAPGLKIHAKLFLISRKENGEVVRYAHIGTGNFNEKTARLYTDYSLLTADARITNEVRRVFNFIENPYRPVTFDYLMVSPQNSRRLLYEMVDREIANAQQGLPSGITLKLNNLVDKGLVDRLYAASSSGVPVNLLVRGMCSLIPNLEGISDNIRAISIVDRYLEHDRVYIFENGGDKKVYLSSADWMTRNIDYRIEVATPLLDPRLKQRVLDIIDILFSDTVKARYIDKELSNRYVPRGNRRKVRAQLAIYDYIKSLEQPE [P0A7B1]”: the “total protein half-life in vivo” value was found to be 6.92 ± 0.14 h under setting [1]; 6.36 ± 0.29 h under setting [2]; 6.79 ± 0.42 h under setting [3]; 6.1 ± 0.063 h under setting [4]; 6.038 ± 0.039 h under setting [5]; 3.29 ± 0.35 h under setting [6]. For the same sequence, the “total protein half-life in vivo” value under setting [7] amounted to 6.27 ± 0.57 h; the “total protein half-life in vivo” value under setting [9] is 5.94 ± 0.53 h; the “total protein half-life in vivo” value under setting [10] was determined as 13 ± 1.2 h; the “total protein half-life in vivo” value under setting [11] was 6.65 ± 0.23 h; the “total protein half-life in vivo” value under setting [12] came out at 13 ± 1.4 h.
